We go through six molecules from US7384632B2, “Agonist anti-trk-C monoclonal antibodies” (Genentech, Inc., priority 2000, dated 2008).

Like-named read-outs stand apart in the source and are kept apart here.

The target in one assay is T1, p75^NTR (LNGFR, p75) (Homo sapiens, UniProt P08138).
T1 construct: host or cells: neurotrophin-responsive neurons
T1 sequence (P08138 29-427): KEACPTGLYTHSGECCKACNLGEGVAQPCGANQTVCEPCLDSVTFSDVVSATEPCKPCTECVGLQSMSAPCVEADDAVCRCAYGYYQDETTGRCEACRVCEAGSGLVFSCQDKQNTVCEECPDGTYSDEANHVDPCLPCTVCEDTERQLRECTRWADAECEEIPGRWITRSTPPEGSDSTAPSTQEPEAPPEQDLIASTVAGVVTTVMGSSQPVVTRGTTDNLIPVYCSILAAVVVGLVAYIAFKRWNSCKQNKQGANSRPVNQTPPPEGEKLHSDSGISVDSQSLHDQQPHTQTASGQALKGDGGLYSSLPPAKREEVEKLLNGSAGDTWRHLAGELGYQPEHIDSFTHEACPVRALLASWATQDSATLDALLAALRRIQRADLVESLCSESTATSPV
Conditions: equilibrium binding studies, neurotrophin-responsive neurons; cited from earlier work.

The test system of assay [1] is cisplatinum induced neuropathy. The experiment in a line: Cisplatinum induced neuropathy in adult rats, H-wave sensory conduction velocity. The assay is classed as in vivo, rat. Conditions: 1 mg/kg three times per week subcutaneously for four weeks, continued cisplatinum. How it is done:
In order to create an animal model of cisplatinum induced neuropathy, adult rats were dosed with cisplatinum twice a week for sixteen weeks with 1 mg/kg intraperitoneally (IP). At this point, rats were split into four groups. All four groups continued receiving cisplatinum twice weekly. […] The NT-3 doses were given subcutaneously, while the Mabs and saline were administered IV. This treatment regime was continued for an additional four weeks, for a total of twenty weeks of cisplatinum administration.

In assay [2] the test system is cisplatin sensory neuropathy. Conditions: rats, cited from earlier work.
The subject of another assay is pyridoxine toxicity. Conditions: cited from earlier work.
The target of the next assay is gD-trkC (Homo sapiens, UniProt Q16288). The experiment in a line: BIAcore surface plasmon resonance (SPR) affinity. The format is binding. How it is done:
Affinities of anti-trkC agonist monoclonal antibodies were determined using BIAcore-2000™ surface plasmon resonance (SPR) system (BIAcore, Inc., Piscataway, N.J.). CM5 biosensor chips were activated with N-ethyl-N′-(3-dimethylaminopropyl)-carbodiimide hydrochloride (EDC) and N-hydroxysuccinimide (NHS) according to the supplier's instructions. In the first series of binding experiments, the antigen, gD-tagged trkC, was diluted into 10 mM sodium acetate buffer (pH 4.8), and injected over the activated chip at a concentration of 0.09 mg/mL. Using variable exposure times, four ranges of antigen density were achieved: 14,000-17,000 response units (RU), 7000-9000 RU, 2000-3000 RU, and 400-600 RU. The chip was blocked with ethanolamine.
In the first series of kinetic measurements, anti-trkC antibodies (IgG's) were diluted into running buffer (PBS containing 0.05% Tween-20 and 0.01% sodium azide) and 0.03 mL (667 nM) was injected over the biosensor chip at 25° C. at a flow rate of 0.01 mL/min.
In a second series of experiments, the IgG's (0.1 mg/mL in 10 mM sodium acetate, pH 4.8) were immobilized as described above, except that antibody density was limited to 1000-2000 RU. Two-fold serial dilutions of gD-trkC in the range of […] to 29 nM were then injected over the biosensor chip for kinetics measurements as described above.
The dissociation phase of each kinetic curve were fit to a single exponential dissociation rate (koff), and these rates were used in the calculation of the association rate (kon) from the injection phase, using a simple 1:1 Langmuir binding model (Lofas & Johnsson, 1990).
Equilibrium dissociation constants, Kd's, from SPR measurements were calculated as the ratio koff/kon.
The affinities of anti-trkC antibodies for gD-trkC were measured in SPR kinetics experiments with either antigen or antibody immobilized. Apparent affinities determined from experiments using low densities of immobilized antigen (0.4 to 0.6 ng/mm2), were generally consistent with those determined in experiments using immobilized IgG (see Table 2). […] In some cases, no binding could be detected when trkC was injected over immobilized IgG. This may have occurred because immobilization of the IgG led to steric blocking of the antigen-binding site.
In general terms: In SPR one partner is held on a chip, and binding of the other changes the refractive index at the surface.

The next assay addresses wildtype trkC (Homo sapiens, UniProt Q16288, S70N). Description: Binding to trkC single amino acid mutants (EC50 ratio). Particulars: wildtype trkC (reference).
The target in a further assay is T2, trkC L284E (Homo sapiens, UniProt Q16288, L315E/S70N).
T2 construct: made in house
The assay is described as above. Conditions: NB = no binding observed.

A further assay deals with T3, trkC R285A (Homo sapiens, UniProt Q16288, R316A/S70N).
T3 construct: made in house
The assay is described as above. Particulars: NB = no binding observed.

For another assay, the target named is T4, trkC L286H (Homo sapiens, UniProt Q16288, L317H/S70N).
T4 construct: made in house
Described as above. Conditions: NB = no binding observed.

For another assay, the target named is T5, trkC E287K (Homo sapiens, UniProt Q16288, E318K/S70N).
T5 construct: made in house
Described as above. Conditions: NB = no binding observed.

The target of another assay is T6, trkC H318A (Homo sapiens, UniProt Q16288, H349A/S70N).
T6 construct: made in house
The description is as above.

A further assay concerns trkC N335A. Further details: species or system human. Conditions: NB = no binding observed.
Where [3] appears, read: gD-trkC binding to immobilized IgG's (1000-3000 RU).

Description for trkC E287K: (§1) Site-directed mutagenesis approach was used to determine the contribution of selected individual amino acid residues of domain 5 in the recognition by anti-trkC antibodies. […] A total of 26 single amino acid mutations were made and evaluated for their effect on binding to anti-trkC monoclonal antibodies. The values shown in Table 5 represent the ratio of binding to anti-trkC antibody of mutant vs wildtype trkC.
Description for trkC H318A: (§2) A total of 26 single amino acid mutations were made and evaluated for their effect on binding to anti-trkC monoclonal antibodies.
Description for trkC L284E: as §1
Description for trkC L286H: as §1
Description for trkC N335A: as §2
Description for trkC R285A: as §1
Description for wildtype trkC: as §1

On to “NGF: nerve growth factor, first identified member of the neurotrophin family”, for which the Kd (commonly the concentration at which binding is half-saturated) with p75^NTR (LNGFR, p75) was 2 nM.
Regarding “NT-3: neurotrophin-3, the natural ligand of trkC receptor; positive control and comparator”, the “sensory conduction velocity (H-wave)” value in [1] is “improvement of this lowered conduction velocity”. In assay [2] (cisplatin), the “cytoplasmic distribution of neurofilament protein in large sensory neurons and numbers of myelinated fibers in sural nerves” value is “corrected”. The “H-reflex-related sensory nerve conduction velocity reduced by cisplatin” value in assay [2] was “restored to normal levels”. Also, the “behavioral and electrophysiological sequelae of pyridoxine toxicity (beam-walking, H waves)” value in the assay on pyridoxine toxicity (NT-3 5-20 mg/kg/day, s.c., during chronic pyridoxine treatment) is given as “largely attenuated”. The “degeneration of sensory fibers in the dorsal column of the spinal cord” value in the assay on pyridoxine toxicity (NT-3 administration during chronic pyridoxine treatment) is “prevented degeneration of sensory fibers in the dorsal column of the spinal cord”.

B1: Mab 2250: murine IgG1 agonist anti-trkC monoclonal antibody; hybridoma ATCC PTA-2149; heavy chain SEQ ID NO: 42, light chain SEQ ID NO: 49 (antibody)
heavy: NQVQLQQSGAELMQPGASVKISCKSTGYTFSNFWIEWVKQRPGHGLEWIGEILPGSDNTNYNEKFKGKATFTADTSSNTAYMQLSSLTSEDSAVYYCARKNRNYYGNYVVWGQGTLVTVSAC
light: NDIVMTQSPASLAVSLGQRATISYRASKSVSTSGYSYMHWNQQKPGQPPRLLIYLVSNLESGVPARFSGSGSGTDFTLNIHPVEEEDAATYYCQHIRELTRSARGQSWKKRC
modifications: Murine
For the molecule B1, the Kd is 8.7 nM in the assay with gD-trkC (IgG's binding to immobilized gD-trkC (400-600 RU), read-out: Kd, Immobilized gD-trkC); 8.7 nM with gD-trkC (Table 3, read-out: Affinity Kd); 28 nM with gD-trkC (gD-trkC binding to immobilized IgG's (1000-3000 RU), read-out: Kd, Immobilized IgG). Moreover, the “ratio of binding of mutant vs wildtype trkC (EC50 divided by EC50 of wildtype trkC)” value in the assay with wildtype trkC is on record as 1.0; with trkC L284E, 0.6; with trkC R285A, 2.6; with trkC L286H, 0.4; with trkC E287K it was 0.8; with trkC H318A, 1.0. Further, the “ratio of binding of mutant vs wildtype trkC (EC50 divided by EC50 of wildtype trkC)” value with trkC N335A stood at 0.5.

B2: BDNF: brain-derived neurotrophic factor, a neurotrophin (protein, UniProt P23560 19-247, looked up)
Neurotrophic factor BDNF …: APMKEANIRGQGGLAYPGVRTHGTLESVNGPKAGSRGLTSLADTFEHVIEELLDEDQKVRPNEENNKDADLYTSRVMLSSQVPLEPPLLFLLEEYKNYLDAANMSMRVRRHSDPARRGELSVCDSISEWVTAADKKTAVDMSGGTVTVLEKVPVSKGQLKQYFYETKCNPMGYTKEGCRGIDKRHWNSQCRTTQSYVRALTMDSKKRIGWRFIRIDTSCVCTLTIKRGR
Turning to B2, the Kd in the assay with p75^NTR (LNGFR, p75) was 2 nM.

B3: Mab 2345: human IgG2 agonist anti-trkC monoclonal antibody; hybridoma ATCC PTA-2146; heavy chain SEQ ID NO: 47, light chain SEQ ID NO: 54 (antibody, listed as Homo sapiens, V domains shown)
VH: NQVQLQESGPGLVKPSQTLSLTCTVSGGSISSGGYYWSWIRQHPEKGLEWIGYIFYSGRTYYNPSLKSRVTISVDTSKNQFSLKLNSVTAADTAVYYCARERIAAAGADYYYNGLDVWGQGTTVTVSSC
VL: NEIVLTQSPGTLSLSPGERATLSCRASQSVSSNYLTWYQQKPGQAPRLLIYGASSRATGIPDRFSGSGSGTDFTLTISRLEPEDFAVYYCQQYGRSPPITFGQGTRLEIKRC
For the molecule B3, the “Kd, Immobilized IgG” value in the assay with gD-trkC (setting [3]) is listed as “NDB”.

B4: Mab 2349: human IgG4 agonist anti-trkC monoclonal antibody; hybridoma ATCC PTA-2153; heavy chain SEQ ID NO: 48, light chain SEQ ID NO: 55 (antibody, listed as Homo sapiens, V domains shown)
VH: NQVQLQESGPGLVKPSQTLSLTCTVSGGSISSGYYYWSWIRQHPGKGLEWIGYIYYSGSTYYNPSLKSRLTISVDTSKNQFSLKLSSVTAADTAVYYCARERIAAAGTDYYYNGLAVWGQGTTVTVSSC
VL: NGIVLTQSPGTLSLSPGERATFSCRASQSGSSTYLAWYQQKPGQAPRLLIYGASSRATGIPDRFSGSGSGTDFTLTISRLEPEDFAVYYCQQYGRSPPITFGQGTRLEIKRC
For B4, the “Kd, Immobilized IgG” value with gD-trkC (setting [3]) was “NDB”.
